Assay results from the supplement of paper PMC5998384.

How the values were obtained:
[1] = test system: HeLa Kyoto; experiment: solubility in G1/S (NP-40 vs SDS abundance) (log2 ratio); higher = more soluble; conditions: cell cycle stage: G1/S
[2] = test system: HeLa Kyoto; experiment: solubility change mitosis vs G1/S (difference of NP-40 vs SDS log2 ratios) (log2 ratio difference); higher = more soluble in mitosis
[3] = test system: HeLa Kyoto; experiment: melting temperature (median over replicates), in situ; higher = more thermally stable
[4] = test system: HeLa Kyoto; experiment: thermal stability score vs G1/S (z-score of summed log2 fold changes over temperatures); higher = more thermally stable than in G1/S
[5] = cell cycle stage: early G1 (4.5 h after nocodazole release)
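Wherever melting temperature (median over replicates), in situ is given: HeLa Kyoto cells synchronized by double thymidine or nocodazole block, proteins quantified by TMT10plex mass spectrometry, three independent biological replicates.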
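Wherever solubility change mitosis vs G1/S (difference of NP-40 vs SDS log2 ratios) is given: synchronized HeLa Kyoto cells (double thymidine block for G1/S, nocodazole release for mitosis), protein amounts in NP-40 versus SDS lysates quantified by mass spectrometry, three biological replicates.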
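Wherever solubility in G1/S (NP-40 vs SDS abundance) is given: HeLa Kyoto cells arrested at G1/S by double thymidine block, proteins quantified by TMT10plex mass spectrometry in mild NP-40 versus SDS extracts, three biological replicates.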
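Wherever thermal stability score vs G1/S (z-score of summed log2 fold changes over temperatures) is given: synchronized HeLa Kyoto cells, proteins quantified by TMT10plex mass spectrometry, three biological replicates, mitosis taken 0.5 h after nocodazole release, G1/S directly after double thymidine block.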

| Substance | solubility in G1/S (log2) [1] | solubility change mitosis (log2) [2] | melting temperature ([3]; cell cycle stage: G1/S) [°C] | melting temperature ([3]; cell cycle stage: mitosis) [°C] | thermal stability score [4, 5] | thermal stability score ([4]; cell cycle stage: mitosis) |
| --- | --- | --- | --- | --- | --- | --- |
| MVAPGSVTSRLGSVFPFLLVLVDLQYEGAECGVNADVEKHLELGKKLLAAGQLADALSQFHAAVDGDPDNYIAYYRRATVFLAMGKSKAALPDLTKVIQLKMDFTAARLQRGHLLLKQGKLDEAEDDFKKVLKSNPSENEEKEAQSQLIKSDEMQRLRSQALNAFGSGDYTAAIAFLDKILEVCVWDAELRELRAECFIKEGEPRKAISDLKAASKLKNDNTEAFYKISTLYYQLGDHELSLSEVRECLKLDQDHKRCFAHYKQVKKLNKLIESAEELIRDGRYTDATSKYESVMKTEPSIAEYTVRSKERICHCFSKDEKPVEAIRVCSEVLQMEPDNVNALKDRAEAYLIEEMYDEAIQDYETAQEHNENDQQIREGLEKAQRLLKQSQKRDYYKILGVKRNAKKQEIIKAYRKLALQWHPDNFQNEEEKKKAEKKFIDIAAAKEVLSDPEMRKKFDDGEDPLDAESQQGGGGNPFHRSWNSWQGFNPFSSGGPFRFKFHFN [DNAJC3] | 0.202 | -0.0724 | 53.3 | 54.4 | 5 | 3.84 |
| MALQVELVPTGEIIRVVHPHRPCKLALGSDGVRVTMESALTARDRVGVQDFVLLENFTSEAAFIENLRRRFRENLIYTYIGPVLVSVNPYRDLQIYSRQHMERYRGVSFYEVPPHLFAVADTVYRALRTERRDQAVMISGESGAGKTEATKRLLQFYAETCPAPERGGAVRDRLLQSNPVLEAFGNAKTLRNDNSSRFGKYMDVQFDFKGAPVGGHILSYLLEKSRVVHQNHGERNFHIFYQLLEGGEEETLRRLGLERNPQSYLYLVKGQCAKVSSINDKSDWKVVRKALTVIDFTEDEVEDLLSIVASVLHLGNIHFAANEESNAQVTTENQLKYLTRLLSVEGSTLREALTHRKIIAKGEELLSPLNLEQAAYARDALAKAVYSRTFTWLVGKINRSLASKDVESPSWRSTTVLGLLDIYGFEVFQHNSFEQFCINYCNEKLQQLFIELTLKSEQEEYEAEGIAWEPVQYFNNKIICDLVEEKFKGIISILDEECLRPGEATDLTFLEKLEDTVKHHPHFLTHKLADQRTRKSLGRGEFRLLHYAGEVTYSVTGFLDKNNDLLFRNLKETMCSSKNPIMSQCFDRSELSDKKRPETVATQFKMSLLQLVEILQSKEPAYVRCIKPNDAKQPGRFDEVLIRHQVKYLGLLENLRVRRAGFAYRRKYEAFLQRYKSLCPETWPTWAGRPQDGVAVLVRHLGYKPEEYKMGRTKIFIRFPKTLFATEDALEVRRQSLATKIQAAWRGFHWRQKFLRVKRSAICIQSWWRGTLGRRKAAKRKWAAQTIRRLIRGFVLRHAPRCPENAFFLDHVRTSFLLNLRRQLPQNVLDTSWPTPPPALREASELLRELCIKNMVWKYCRSISPEWKQQLQQKAVASEIFKGKKDNYPQSVPRLFISTRLGTDEISPRVLQALGSEPIQYAVPVVKYDRKGYKPRSRQLLLTPNAVVIVEDAKVKQRIDYANLTGISVSSLSDSLFVLHVQRADNKQKGDVVLQSDHVIETLTKTALSANRVNSININQGSITFAGGPGRDGTIDFTPGSELLITKAKNGHLAVVAPRLNSR [MYO1C] | -0.972 | -0.0879 | 50.1 | 50.2 | -1.1 | 3.69 |
| MTGQGQSASGSSAWSTVFRHVRYENLIAGVSGGVLSNLALHPLDLVKIRFAVSDGLELRPKYNGILHCLTTIWKLDGLRGLYQGVTPNIWGAGLSWGLYFFFYNAIKSYKTEGRAERLEATEYLVSAAEAGAMTLCITNPLWVTKTRLMLQYDAVVNSPHRQYKGMFDTLVKIYKYEGVRGLYKGFVPGLFGTSHGALQFMAYELLKLKYNQHINRLPEAQLSTVEYISVAALSKIFAVAATYPYQVVRARLQDQHMFYSGVIDVITKTWRKEGVGGFYKGIAPNLIRVTPACCITFVVYENVSHFLLDLREKRK [SLC25A32] | -0.199 | -0.12 | 56.8 | 56.7 | -0.577 | 0.155 |
| MPVGGLLPLFSSPAGGVLGGGLGGGGGRKGSGPAALRLTEKFVLLLVFSAFITLCFGAIFFLPDSSKLLSGVLFHSSPALQPAADHKPGPGARAEDAAEGRARRREEGAPGDPEAALEDNLARIRENHERALREAKETLQKLPEEIQRDILLEKKKVAQDQLRDKAPFRGLPPVDFVPPIGVESREPADAAIREKRAKIKEMMKHAWNNYKGYAWGLNELKPISKGGHSSSLFGNIKGATIVDALDTLFIMEMKHEFEEAKSWVEENLDFNVNAEISVFEVNIRFVGGLLSAYYLSGEEIFRKKAVELGVKLLPAFHTPSGIPWALLNMKSGIGRNWPWASGGSSILAEFGTLHLEFMHLSHLSGNPIFAEKVMNIRTVLNKLEKPQGLYPNYLNPSSGQWGQHHVSVGGLGDSFYEYLLKAWLMSDKTDLEAKKMYFDAVQAIETHLIRKSSSGLTYIAEWKGGLLEHKMGHLTCFAGGMFALGADAAPEGMAQHYLELGAEIARTCHESYNRTFMKLGPEAFRFDGGVEAIATRQNEKYYILRPEVMETYMYMWRLTHDPKYRKWAWEAVEALENHCRVNGGYSGLRDVYLLHESYDDVQQSFFLAETLKYLYLIFSDDDLLPLEHWIFNSEAHLLPILPKDKKEVEIREE [MAN1A1] | 0.133 | -0.0318 | 55 | 54.7 | 1.56 | 0.0924 |
| MSATSVDQRPKGQGNKVSVQNGSIHQKDAVNDDDFEPYLSSQTNQSNSYPPMSDPYMPSYYAPSIGFPYSLGEAAWSTAGDQPMPYLTTYGQMSNGEHHYIPDGVFSQPGALGNTPPFLGQHGFNFFPGNADFSTWGTSGSQGQSTQSSAYSSSYGYPPSSLGRAITDGQAGFGNDTLSKVPGISSIEQGMTGLKIGGDLTAAVTKTVGTALSSSGMTSIATNSVPPVSSAAPKPTSWAAIARKPAKPQPKLKPKGNVGIGGSAVPPPPIKHNMNIGTWDEKGSVVKAPPTQPVLPPQTIIQQPQPLIQPPPLVQSQLPQQQPQPPQPQQQQGPQPQAQPHQVQPQQQQLQNRWVAPRNRGAGFNQNNGAGSENFGLGVVPVSASPSSVEVHPVLEKLKAINNYNPKDFDWNLKNGRVFIIKSYSEDDIHRSIKYSIWCSTEHGNKRLDAAYRSLNGKGPLYLLFSVNGSGHFCGVAEMKSVVDYNAYAGVWSQDKWKGKFEVKWIFVKDVPNNQLRHIRLENNDNKPVTNSRDTQEVPLEKAKQVLKIIATFKHTTSIFDDFAHYEKRQEEEEAMRRERNRNKQ [YTHDF3] | 0.098 | -0.0838 | 52.4 | 51.6 | -0.535 | -3.39 |
| MNRTKGDEEEYWNSSKFKAFTFDDEDDELSQLKESKRAVNSLRDFVDDDDDDDLERVSWSGEPVGSISWSIRETAGNSGSTHEGREQLKSRNSFSSYAQLPKPTSTYSLSSFFRGRTRPGSFQSLSDALSDTPAKSYAPELGRPKGEYRDYSNDWSPSDTVRRLRKGKVCSLERFRSLQDKLQLLEEAVSMHDGNVITAVLIFLKRTLSKEILFRELEVRQVALRHLIHFLKEIGDQKLLLDLFRFLDRTEELALSHYREHLNIQDPDKRKEFLKTCVGLPFSAEDSAHIQDHYTLLERQIIIEANDRHLESAGQTEIFRKHPRKASILNMPLVTTLFYSCFYHYTEAEGTFSSPVNLKKTFKIPDKQYVLTALAARAKLRAWNDVDALFTTKNWLGYTKKRAPIGFHRVVEILHKNNAPVQILQEYVNLVEDVDTKLNLATKFKCHDVVIDTYRDLKDRQQLLAYRSKVDKGSAEEEKIDALLSSSQIRWKN [VIPAS39] | 0.111 | -0.125 | 49.5 | 49.2 | 0.126 | 0.142 |
| RPE | 0.306 | 0.356 | 56 | 55.2 | -0.485 | -1.28 |
| MDFPCLWLGLLLPLVAALDFNYHRQEGMEAFLKTVAQNYSSVTHLHSIGKSVKGRNLWVLVVGRFPKEHRIGIPEFKYVANMHGDETVGRELLLHLIDYLVTSDGKDPEITNLINSTRIHIMPSMNPDGFEAVKKPDCYYSIGRENYNQYDLNRNFPDAFEYNNVSRQPETVAVMKWLKTETFVLSANLHGGALVASYPFDNGVQATGALYSRSLTPDDDVFQYLAHTYASRNPNMKKGDECKNKMNFPNGVTNGYSWYPLQGGMQDYNYIWAQCFEITLELSCCKYPREEKLPSFWNNNKASLIEYIKQVHLGVKGQVFDQNGNPLPNVIVEVQDRKHICPYRTNKYGEYYLLLLPGSYIINVTVPGHDPHITKVIIPEKSQNFSALKKDILLPFQGQLDSIPVSNPSCPMIPLYRNLPDHSAATKPSLFLFLVSLLHIFFK | 0.0898 | -0.0348 | 57.6 | 56.3 | 2.04 | 3.27 |
| MGRSRSRSSSRSKHTKSSKHNKKRSRSRSRSRDKERVRKRSKSRESKRNRRRESRSRSRSTNTAVSRRERDRERASSPPDRIDIFGRTVSKRSSLDEKQKREEEEKKAEFERQRKIRQQEIEEKLIEEETARRVEELVAKRVEEELEKRKDEIEREVLRRVEEAKRIMEKQLLEELERQRQAELAAQKAREEEERAKREELERILEENNRKIAEAQAKLAEEQLRIVEEQRKIHEERMKLEQERQRQQKEEQKIILGKGKSRPKLSFSLKTQD [ARGLU1] | -1.03 | 0.866 | 51 | 50.4 | -5.79 | -4.86 |
| MAEQLSPGKAVDQVCTFLFKKPGRKGAAGRRKRPACDPEPGESGSSSDEGCTVVRPEKKRVTHNPMIQKTRDSGKQKAAYGDLSSEEEEENEPESLGVVYKSTRSAKPVGPEDMGATAVYELDTEKERDAQAIFERSQKIQEELRGKEDDKIYRGINNYQKYMKPKDTSMGNASSGMVRKGPIRAPEHLRATVRWDYQPDICKDYKETGFCGFGDSCKFLHDRSDYKHGWQIERELDEGRYGVYEDENYEVGSDDEEIPFKCFICRQSFQNPVVTKCRHYFCESCALQHFRTTPRCYVCDQQTNGVFNPAKELIAKLEKHRATGEGGASDLPEDPDEDAIPIT [RNF113A] | 0.17 | 0.0489 | 55.6 | 63.5 | -3.12 | -4.15 |
| MLLSLVLHTYSMRYLLPSVVLLGTAPTYVLAWGVWRLLSAFLPARFYQALDDRLYCVYQSMVLFFFENYTGVQILLYGDLPKNKENIIYLANHQSTVDWIVADILAIRQNALGHVRYVLKEGLKWLPLYGCYFAQHGGIYVKRSAKFNEKEMRNKLQSYVDAGTPMYLVIFPEGTRYNPEQTKVLSASQAFAAQRGLAVLKHVLTPRIKATHVAFDCMKNYLDAIYDVTVVYEGKDDGGQRRESPTMTEFLCKECPKIHIHIDRIDKKDVPEEQEHMRRWLHERFEIKDKMLIEFYESPDPERRKRFPGKSVNSKLSIKKTLPSMLILSGLTAGMLMTDAGRKLYVNTWIYGTLLGCLWVTIKA [AGPAT5] | -0.125 | -0.0679 | 52.1 | 52.6 | 0.0279 | -1.01 |
| MVEKEEAGGGISEEEAAQYDRQIRLWGLEAQKRLRASRVLLVGLKGLGAEIAKNLILAGVKGLTMLDHEQVTPEDPGAQFLIRTGSVGRNRAEASLERAQNLNPMVDVKVDTEDIEKKPESFFTQFDAVCLTCCSRDVIVKVDQICHKNSIKFFTGDVFGYHGYTFANLGEHEFVEEKTKVAKVSQGVEDGPDTKRAKLDSSETTMVKKKVVFCPVKEALEVDWSSEKAKAALKRTTSDYFLLQVLLKFRTDKGRDPSSDTYEEDSELLLQIRNDVLDSLGISPDLLPEDFVRYCFSEMAPVCAVVGGILAQEIVKALSQRDPPHNNFFFFDGMKGNGIVECLGPK [SAE1] | 0.0883 | -0.153 | 52.4 | 52.3 | 0.0359 | 0.096 |
